Results: PMC8329713, “The identification and structural analysis of potential 14-3-3 interaction sites on the bone regulator protein Schnurri-3” (Acta Crystallographica. Section F, Structural Biology …, 2021)
Non-standard residues stand in square brackets, D forms with d. No end group written: not given here. *: point of attachment. FITC = O=C1OC2(c3ccc(O)cc3Oc3cc(O)ccc32)c2ccc(NC(=S)*)cc21; pS = N[C@@H](COP(=O)(O)O)C(=O)O; Ahx = NCCCCCC(=O)O

Key:
14-3-3ɛ (full length) [1] = target: T1, 14-3-3ɛ (full length) (human, UniProt P62258 1-255); test: FP
T1 chain: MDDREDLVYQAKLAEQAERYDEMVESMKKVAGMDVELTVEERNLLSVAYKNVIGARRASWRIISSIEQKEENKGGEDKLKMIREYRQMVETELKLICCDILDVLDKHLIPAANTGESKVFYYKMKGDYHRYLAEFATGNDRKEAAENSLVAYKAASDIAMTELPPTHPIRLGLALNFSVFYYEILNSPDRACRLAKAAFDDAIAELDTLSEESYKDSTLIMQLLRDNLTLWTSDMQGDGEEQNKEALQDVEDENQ

14-3-3β (full length) [2] = target: T2, 14-3-3β (full length) (human, UniProt P31946 1-246); test: FP
T2 chain: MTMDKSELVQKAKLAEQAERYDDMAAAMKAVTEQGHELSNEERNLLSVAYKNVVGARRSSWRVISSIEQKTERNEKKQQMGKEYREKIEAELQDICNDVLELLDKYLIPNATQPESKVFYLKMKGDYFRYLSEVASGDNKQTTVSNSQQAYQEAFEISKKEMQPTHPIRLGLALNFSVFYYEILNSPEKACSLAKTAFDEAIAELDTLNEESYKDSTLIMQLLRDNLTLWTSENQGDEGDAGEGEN

14-3-3τ (full length) = target: T3, 14-3-3τ (full length) (human, UniProt P27348 1-245); test: FP
T3 chain: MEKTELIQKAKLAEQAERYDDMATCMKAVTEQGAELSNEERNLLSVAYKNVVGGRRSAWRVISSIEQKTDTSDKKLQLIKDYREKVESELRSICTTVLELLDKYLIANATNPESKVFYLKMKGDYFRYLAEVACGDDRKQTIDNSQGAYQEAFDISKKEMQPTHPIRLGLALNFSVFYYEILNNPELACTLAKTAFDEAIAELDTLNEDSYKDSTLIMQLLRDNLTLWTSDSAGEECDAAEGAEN

14-3-3ζ (full length) [3] = target: T4, 14-3-3ζ (full length) (human, UniProt P63104 1-245); test: FP
T4 chain: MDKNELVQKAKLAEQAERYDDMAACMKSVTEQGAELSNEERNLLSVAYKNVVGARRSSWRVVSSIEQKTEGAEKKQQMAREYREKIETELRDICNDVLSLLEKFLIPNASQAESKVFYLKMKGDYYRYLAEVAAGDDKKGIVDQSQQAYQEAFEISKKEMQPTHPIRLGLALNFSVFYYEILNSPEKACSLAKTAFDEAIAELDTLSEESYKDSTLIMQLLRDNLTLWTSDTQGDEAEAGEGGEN

14-3-3σ (full length) [4] = target: T5, 14-3-3σ (full length) (human, UniProt P31947 1-248); test: ITC; peptide titrated into the cell containing the 14-3-3 protein, 18 injections of 2 µl, 25°C; 50 mM Tris pH 7.5, 150 mM NaCl, 5 mM MgCl2, 2 mM 2-mercaptoethanol, 0.05% Tween-20 (reducing conditions); conditions: both partners purified
T5 construct: 14-3-3 protein sigma, human, full length; Expressed from a pPRoeX-Htb vector; also called 14-3-3 isoform σ; the σ isoform; source: E. coli NiCo21(DE3), purified (nickel column, TEV cleavage, second nickel column, SEC)
T5 sequence (looked up): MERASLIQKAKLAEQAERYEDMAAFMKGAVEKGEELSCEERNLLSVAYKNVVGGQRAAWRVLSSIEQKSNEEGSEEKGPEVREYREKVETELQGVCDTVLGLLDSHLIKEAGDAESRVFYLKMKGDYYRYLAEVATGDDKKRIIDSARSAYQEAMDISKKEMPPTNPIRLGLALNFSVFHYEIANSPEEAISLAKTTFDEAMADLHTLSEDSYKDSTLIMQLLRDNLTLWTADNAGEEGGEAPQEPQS

14-3-3σ (full length) [5] = target: T5, 14-3-3σ (full length); test: fluorescence polarisation; 14-3-3 isoforms (full length) serially diluted twofold in the presence of 10 nM FITC-labelled peptide; 50 mM Tris pH 7.5, 150 mM NaCl, 5 mM MgCl2, 0.05% Tween-20 (no reducing agent listed); one-site specific binding model; conditions: both partners purified
14-3-3ɛ (full length) [6] = target: T6, 14-3-3ɛ (full length) (human, UniProt P62258 1-255); test: as above; conditions: both partners purified
T6 construct: 14-3-3 protein epsilon, human, full length; Expressed from a pPRoeX-Htb vector; also called 14-3-3 isoform ɛ; source: E. coli NiCo21(DE3), purified (nickel column, TEV cleavage, second nickel column, SEC)
T6 sequence (looked up): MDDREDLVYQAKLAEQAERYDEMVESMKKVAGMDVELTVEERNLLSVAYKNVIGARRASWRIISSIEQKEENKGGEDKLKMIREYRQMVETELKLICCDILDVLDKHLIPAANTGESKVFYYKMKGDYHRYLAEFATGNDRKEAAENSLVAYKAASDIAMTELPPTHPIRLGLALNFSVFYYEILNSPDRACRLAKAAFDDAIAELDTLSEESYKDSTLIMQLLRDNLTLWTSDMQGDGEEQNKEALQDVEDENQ

14-3-3ζ (full length) [7] = target: T7, 14-3-3ζ (full length) (human, UniProt P63104 1-245); test: as above; conditions: both partners purified
T7 construct: 14-3-3 protein zeta/delta, human, full length; Expressed from a pPRoeX-Htb vector; also called 14-3-3 isoform ζ; source: E. coli NiCo21(DE3), purified (nickel column, TEV cleavage, second nickel column, SEC)
T7 sequence (looked up): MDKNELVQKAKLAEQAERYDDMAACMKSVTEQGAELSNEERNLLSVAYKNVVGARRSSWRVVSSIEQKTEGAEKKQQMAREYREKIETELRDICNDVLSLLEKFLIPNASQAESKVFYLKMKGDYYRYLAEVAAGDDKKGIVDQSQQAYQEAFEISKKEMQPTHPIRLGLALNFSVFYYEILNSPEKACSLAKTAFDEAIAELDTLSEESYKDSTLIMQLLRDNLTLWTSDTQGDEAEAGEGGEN

14-3-3β (full length) [8] = target: T8, 14-3-3β (full length) (human, UniProt P31946 1-246); test: as above; conditions: both partners purified
T8 construct: 14-3-3 protein beta/alpha, human, full length; Expressed from a pPRoeX-Htb vector; also called 14-3-3 isoform β; source: E. coli NiCo21(DE3), purified (nickel column, TEV cleavage, second nickel column, SEC)
T8 sequence (looked up): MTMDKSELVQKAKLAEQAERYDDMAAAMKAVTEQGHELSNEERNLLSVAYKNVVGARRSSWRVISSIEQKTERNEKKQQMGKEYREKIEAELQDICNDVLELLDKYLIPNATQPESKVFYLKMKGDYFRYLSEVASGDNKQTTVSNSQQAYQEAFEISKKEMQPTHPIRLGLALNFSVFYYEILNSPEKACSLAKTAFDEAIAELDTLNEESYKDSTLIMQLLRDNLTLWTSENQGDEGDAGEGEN

B1: SHN3pS542 peptide, N-terminally FITC-Ahx-labelled (peptide)
peptide: {FITC-Ahx}-LLRSH[pS]MPSAAC
modifications: also: phosphoserine at 542, position not mapped
notes: Schnurri-3 (SHN3, transcription factor HIVEP3), human, 12-mer around phosphorylated Ser542; also called SHN3pS542-FITC; the FITC-labelled form; source: synthetic peptide, bought: GenScript (purity >95%)
Question: Which Kd (14-3-3ɛ (full length) [1]) does the source give for B1 here?
Answer: 2510 nM

Question: What about the Kd (14-3-3β (full length) [2]) of the same binder?
Answer: 1380 nM

Question: What about the Kd (14-3-3τ (full length)) of the same binder?
Answer: 1910 nM

Question: And the Kd (14-3-3ζ (full length) [3])?
Answer: 2140 nM

Question: And the Kd (14-3-3σ (full length) [4])?
Answer: 4800 ± 800 nM

Question: What about the Kd (14-3-3σ (full length) [5]) of the same binder?
Answer: 26 ± 2 nM

Question: Does B1 bind (14-3-3ɛ (full length) [6])?
Answer: binds

Question: Does B1 bind (14-3-3ζ (full length) [7])?
Answer: binds

Question: Does B1 bind (14-3-3β (full length) [8])?
Answer: binds
